# According to patent publication US7557190:
# T1: Ep-CAM/Fc (recombinant human) (human, UniProt P16422)
# T1 chain: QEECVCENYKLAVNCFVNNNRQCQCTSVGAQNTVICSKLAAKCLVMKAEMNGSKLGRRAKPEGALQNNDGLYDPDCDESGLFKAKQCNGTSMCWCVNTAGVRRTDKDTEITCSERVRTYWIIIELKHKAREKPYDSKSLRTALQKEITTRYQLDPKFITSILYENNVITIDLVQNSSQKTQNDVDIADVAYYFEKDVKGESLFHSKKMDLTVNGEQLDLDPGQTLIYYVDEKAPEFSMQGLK
# B1: H3.77/L3 (humanized 17-1A) (antibody, V domains shown)
# VH: EVQLVESGGGLVQPGGSLRLSCAASGYSFTNYLIEWVRQAPGQGLEWMGVINPGSGGTNYNPSLKSRVTISADKSISTAYMELSSLRSEDTAVYFCARDGPWFAYWGQGTLVTVSS
# VL: NIVMTQSPDSLAVSLGERATLSCRASENVVTYVSWYQQKPGQSPQLLIYGASNRYTGVPDRFTGSGSATDFTLTINSLEAEDAATYYCGQGYSYPYTFGGGTKLEIK
# Biological target: T1, Ep-CAM/Fc (recombinant human)
# Assay: SPR
binder,measurement,value
B1,Kd,64.9 nM
